Like-named read-outs stand apart in the source and are kept apart here.
Columns and labels:
Assay type in all cases: cell-based
[1] = target: T1, human GLP-1 receptor (hGLP-1r) (Homo sapiens, UniProt P43220); experiment: BSA-cAMP assay, cells expressing human GLP-1 receptor; conditions: BSA-cAMP assay, read-out: hGLP1r cAMP activity EC50
T1 construct: expressed in transfected cells
Outline: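 EC50 came from an unconstrained 4-parameter logistic fit of HTRF cAMP data expressed as percent of maximal native agonist activation, tested on two occasions. Thawed receptor-expressing cells (hGLP-1r, hGIPr at 0.5×10^5 cells/ml) treated 30 min at room temperature in 0.1% BSA-containing medium; two distinct hGIPr lines.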

[2] = target: T2, mouse GIP receptor (mGIPr) (Mus musculus, UniProt Q0P543); experiment: BSA-cAMP assay, cells expressing mouse GIP receptor; conditions: BSA-cAMP assay, read-out: mGIPr cAMP activity EC50
T2 construct: expressed in transfected cells; host or cells: HEK293s or CHO cells
T2 sequence (Q0P543 19-460): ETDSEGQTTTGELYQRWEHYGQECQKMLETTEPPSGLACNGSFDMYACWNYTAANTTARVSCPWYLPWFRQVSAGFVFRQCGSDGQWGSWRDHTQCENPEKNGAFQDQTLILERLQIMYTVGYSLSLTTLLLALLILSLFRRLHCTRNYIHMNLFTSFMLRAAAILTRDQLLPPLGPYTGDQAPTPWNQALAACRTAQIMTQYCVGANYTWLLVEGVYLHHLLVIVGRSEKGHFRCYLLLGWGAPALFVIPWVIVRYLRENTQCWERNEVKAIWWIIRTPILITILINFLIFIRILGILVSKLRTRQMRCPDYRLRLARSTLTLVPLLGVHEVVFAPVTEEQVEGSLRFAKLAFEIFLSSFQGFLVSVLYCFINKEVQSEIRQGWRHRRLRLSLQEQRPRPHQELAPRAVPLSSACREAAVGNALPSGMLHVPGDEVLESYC
Outline: (§1)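 EC50 is the midpoint of an unconstrained 4-parameter logistic fit to HTRF cAMP data, expressed as percent of maximal native agonist response, from two separate occasions. Rodent (mouse, rat) GLP-1R- or GIPR-expressing cells were incubated with compound 30 min at room temperature in 0.1% BSA medium, in duplicate.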

[3] = target: T3, human glucagon receptor (GCGr) (Homo sapiens, UniProt P47871); experiment: BSA-cAMP assay, cells expressing human glucagon receptor
T3 construct: expressed in transfected cells; host or cells: HEK293s or CHO cells
T3 sequence (P47871 26-477): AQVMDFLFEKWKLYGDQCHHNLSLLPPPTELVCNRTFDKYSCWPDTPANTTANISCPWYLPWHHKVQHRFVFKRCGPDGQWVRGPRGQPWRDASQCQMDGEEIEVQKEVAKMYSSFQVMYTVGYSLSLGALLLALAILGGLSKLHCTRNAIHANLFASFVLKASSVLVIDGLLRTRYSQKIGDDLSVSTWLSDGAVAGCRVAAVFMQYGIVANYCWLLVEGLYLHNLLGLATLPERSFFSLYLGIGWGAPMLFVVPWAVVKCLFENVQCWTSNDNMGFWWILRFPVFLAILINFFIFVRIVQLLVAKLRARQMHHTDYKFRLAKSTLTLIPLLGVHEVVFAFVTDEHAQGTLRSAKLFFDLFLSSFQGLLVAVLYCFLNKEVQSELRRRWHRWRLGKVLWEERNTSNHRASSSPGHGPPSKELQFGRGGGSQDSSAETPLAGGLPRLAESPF

rat GIP receptor (rGIPr) = target: T4, rat GIP receptor (rGIPr) (Rattus norvegicus, UniProt P43219); experiment: BSA-cAMP assay, cells expressing rat GIP receptor; conditions: BSA-cAMP assay, read-out: rGIPr cAMP activity EC50
T4 construct: expressed in transfected cells; host or cells: HEK293s or CHO cells
T4 sequence (P43219 19-455): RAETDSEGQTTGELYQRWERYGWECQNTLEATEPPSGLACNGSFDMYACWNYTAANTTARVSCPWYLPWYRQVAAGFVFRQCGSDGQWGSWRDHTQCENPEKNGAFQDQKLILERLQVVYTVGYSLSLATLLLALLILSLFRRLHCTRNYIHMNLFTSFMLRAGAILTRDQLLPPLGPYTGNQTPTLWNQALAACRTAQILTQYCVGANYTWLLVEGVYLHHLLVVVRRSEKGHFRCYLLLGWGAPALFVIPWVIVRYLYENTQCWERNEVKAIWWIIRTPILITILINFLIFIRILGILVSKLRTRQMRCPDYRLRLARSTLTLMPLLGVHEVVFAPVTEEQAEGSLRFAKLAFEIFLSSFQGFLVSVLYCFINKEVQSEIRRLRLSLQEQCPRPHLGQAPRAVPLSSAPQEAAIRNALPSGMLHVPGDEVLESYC
Outline: as §1

[4] = target: T5, mouse GLP-1 receptor (mGLP-1r) (Mus musculus, UniProt O35659); experiment: BSA-cAMP assay, cells expressing mouse GLP-1 receptor; conditions: BSA-cAMP assay, read-out: mGLP1r cAMP activity EC50
T5 construct: expressed in transfected cells; host or cells: HEK293s or CHO cells
T5 sequence (O35659 22-463): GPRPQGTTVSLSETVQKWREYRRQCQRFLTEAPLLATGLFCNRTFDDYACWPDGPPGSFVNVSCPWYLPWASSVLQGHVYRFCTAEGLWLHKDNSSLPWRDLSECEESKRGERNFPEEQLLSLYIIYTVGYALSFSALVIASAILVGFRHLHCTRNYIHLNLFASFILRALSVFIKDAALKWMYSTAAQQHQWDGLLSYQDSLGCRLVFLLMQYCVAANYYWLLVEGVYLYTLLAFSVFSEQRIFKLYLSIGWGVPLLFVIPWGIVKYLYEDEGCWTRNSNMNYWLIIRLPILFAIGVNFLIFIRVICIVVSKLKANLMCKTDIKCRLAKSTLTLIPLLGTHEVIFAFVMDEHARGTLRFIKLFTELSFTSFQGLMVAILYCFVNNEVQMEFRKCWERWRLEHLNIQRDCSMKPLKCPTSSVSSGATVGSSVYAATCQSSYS
Outline: as §1

[5] = Batch 1, read-out: hGCGr cAMP activity EC50
[6] = Batch 2, read-out: hGCGr cAMP activity EC50

T1 sequence (P43220 24-463): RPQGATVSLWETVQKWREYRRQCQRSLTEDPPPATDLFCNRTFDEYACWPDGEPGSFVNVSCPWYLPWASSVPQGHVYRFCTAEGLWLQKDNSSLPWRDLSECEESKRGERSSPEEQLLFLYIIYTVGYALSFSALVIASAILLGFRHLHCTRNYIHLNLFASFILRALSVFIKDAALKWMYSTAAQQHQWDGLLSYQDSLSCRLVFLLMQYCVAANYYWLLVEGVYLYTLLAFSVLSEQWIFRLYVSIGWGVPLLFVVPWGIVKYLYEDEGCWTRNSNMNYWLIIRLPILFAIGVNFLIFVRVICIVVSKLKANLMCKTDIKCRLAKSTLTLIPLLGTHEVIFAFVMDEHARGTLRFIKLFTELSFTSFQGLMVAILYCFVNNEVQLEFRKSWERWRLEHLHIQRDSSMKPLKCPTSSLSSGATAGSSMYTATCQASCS

EC50 ([1]; Batch 1) [nM] | EC50 ([1]; Batch 2) [nM] | EC50 ([2]; Batch 1) [nM] | EC50 [3, 5] [nM] | EC50 [3, 6] [nM] | EC50 (rat GIP receptor (rGIPr); Batch 1) [nM] | EC50 ([4]; Batch 1) [nM] | EC50 ([2]; Batch 2) [nM] | EC50 (rat GIP receptor (rGIPr); Batch 2) [nM] | EC50 ([4]; Batch 2) [nM] | Substance
160 | 260 | > 3930 | 3800 | 3800 | 130 | 2500 |  |  |  | IP320 (YSEGTFTSDYAAAAEAAAAAAFAAWLAAAAGGGGGSGGGGSGGGGSGGGGSACPPC)
0.11 | 0.11 | 0.28 | 330 | 250 | 0.19 | 1.2 | 0.78 | 0.014 | 2.5 | IP396 (YSEGTFTSDYSKLLERQAIDEFIAWLLKGGGGGGGSGGGGSGGGGSGGGGSACPPC)
0.073 |  | 0.4 | > 440 |  | 0.018 | 1.2 |  |  |  | IP412: Fc fusion, IgG1-TM, SEQ ID NO:387; agonist peptide YSEGTFTSDYSKLLEEEANRLFIEWLLAGG (YSEGTFTSDYSKLLEEEANRLFIEWLLAGGGGGGSGGGGSGGGGSGGGGSATHTCPPC)

— patent publication US20160185837A1 (Medimmune Limited, priority 2013, published 2016)
